Read-outs that look alike come from different tables or passages of the source. One block for each binder: values may come before it.
How the values were obtained:
[1] = target: T1, BMPRII-Fc homodimer (UniProt Q13873 27-150); experiment: Biacore SPR; kinetics indeterminate (transient)
T1 construct: extracellular domain
T1 sequence (looked up): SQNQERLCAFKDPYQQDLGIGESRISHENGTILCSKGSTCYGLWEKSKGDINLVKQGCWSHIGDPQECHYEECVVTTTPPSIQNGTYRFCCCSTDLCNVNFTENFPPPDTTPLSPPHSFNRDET

[2] = target: T2, ALK3-Fc homodimer (UniProt P36894 24-152); experiment: Biacore SPR
T2 construct: extracellular domain
T2 sequence (P36894 24-152): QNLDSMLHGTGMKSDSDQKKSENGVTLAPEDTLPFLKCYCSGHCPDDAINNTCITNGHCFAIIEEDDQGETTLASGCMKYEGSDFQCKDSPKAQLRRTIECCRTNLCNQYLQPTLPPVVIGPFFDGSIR
Method: (§1) Ligands were injected and allowed to flow over the captured receptor protein.

[3] = target: T2, ALK3-Fc homodimer; experiment: Biacore SPR; remark: listed apart in the source
Method: as §1

Kd [1]: > 2000 nM
B1: BMP2 (ligand, UniProt P12643 283-396, looked up)
chain: QAKHKQRKRLKSSCKRHPLYVDFSDVGWNDWIVAPPGYHAFYCHGECPFPLADHLNSTNHAIVQTLVNSVNSKIPKACCVPTELSAISMLYLDENEKVVLKNYQDMVVEGCGCR

Kd [2]: 40 nM
koff [2]: 0.0013 s⁻¹
kon [2]: 34000 M⁻¹ s⁻¹
Kd [3]: 40 nM
koff [3]: 0.0013 s⁻¹
kon [3]: 34000 M⁻¹ s⁻¹
Kd [1]: > 88 nM
B2: GDF6 (ligand, UniProt Q6KF10 336-455, looked up)
chain: TAFASRHGKRHGKKSRLRCSKKPLHVNFKELGWDDWIIAPLEYEAYHCEGVCDFPLRSHLEPTNHAIIQTLMNSMDPGSTPPSCCVPTKLTPISILYIDAGNNVVYKQYEDMVVESCGCR
notes: also called BMP13

From US20190225669A1 (ACCELERON PHARMA, published 2019)
